# Numbering of substitutions follows the chain as printed.
# B1: V0055 (antibody, V domains shown)
# VH: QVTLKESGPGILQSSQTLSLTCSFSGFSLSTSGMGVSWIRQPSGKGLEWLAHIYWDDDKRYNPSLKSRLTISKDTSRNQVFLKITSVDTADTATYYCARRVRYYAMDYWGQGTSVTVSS
# VL: DIVMTQSPSSLSVSAGEKVTMSCKSSQSLLNSGNQKNYLAWYQQKPGQPPKLLIYGASTRESGVPDRFTGSGSGTDFTLTISSVQAEDLAVYYCQNDHSHPYTFGGGTKLEIK
# B2: V0043 (antibody, V domains shown)
# VH: DVQLQESGPGLVKPSQSLSLTCSVSGYSITTNYFWNWIRLFPGNKLEWMGYISYDGSNVYNPSLKNRISITRDTSKNQFFLKLNSLTTEDTATYYCARGPPSAYWGQGTLVTVSA
# VL: SIVMTQSPKFLPVSAGDRVTMTCKASQSVGNNVAWYQQKPGQSPKLLIYYASNRYTGVPDRFTGSGSGTDFTLTISSVQVEDLVVYFCQQHYSSPLTFGAGTKLELK
# B3: V0044 (antibody, V domains shown)
# VH: B2 VH with S25T, F34Y, L40Q, S53T, V59N, L86V, S102T
# VL: B2 VL with S1N, S7T, V13I, S14A, T20I, A34G, Q38L, Y50F, L73F, V84A
# B4: V0045 (antibody, V domains shown)
# VH: DVQLQESGPGLVKPSQSLSLTCSVTGYSITTNYYWNWIRQFPGNKLEWMGYISYDGSSNYNPSLKNRISITRDTSKNQFFLNLNSVTTEDTATYYCARDLLGYWGQGTTLTVSS
# VL: B2 VL with S7T, V29L, L73F, V84A, L96R, A100G, L106I, K107R
# B5: V0042 (antibody, V domains shown)
# VH: DVQLQESGPGLVKPSQSLSLTCSVTGYSITTNYYWNWIRQFPGNKLEWMGYITYDGIKTYNPSLNNRISITRDTSKNQFFLKLNSVTTEDTATYYCARGPGLDYWGQGTTLTVSS
# VL: B2 VL with S7T, G64A, L73F, V84A, L96Y, A100S, K103N, L106I
# B6: V0006 (antibody, V domains shown)
# VH: QVQLKESGPGLVAPSQSLSITCTVSGFSLTSYAISWVRQPPGKSLEWLGVIWTGGGSKYNSALKSRLSISKDNSKSQVFLKMNSLQTDDTARYYCVRNYDYYRYEGFDYWGQGTLVTVSA
# VL: DIKMTQSPSSLSASLGEGVSLTCRASQDIGSSLHWLQQKPDGTIKRLIYGTSTLDSDVPKRFSGSRSGSDYSLTISSLESEDFVDYFCLQYATSPPTFGGGTKLEIK
# B7: V0049 (antibody, V domains shown)
# VH: QVTLKESGPGILQSSQTLSLTCSFSGFSLSTSGMGVSWIRQPSGKGLEWLAHIYWDDDKRYNPSLKSRLKISKDTSRNQVFLKITSVDTADTATYYCARRGYYSNGNYFDYWGQGTTLTVSS
# VL: QIVLTQSPTTMAASPGEKITITCSASSSISSTYLHWYQQKPGFSPKLLIYRTSNLASGVPARFSGSGSGTSYSLTIGTMEAEDVATYYCQQGSSIPRYTFGGGTKLEIK
# B8: V0003 (antibody, V domains shown)
# VH: QVQLQQPGTELVKPGASVKLSCKASGYTFTKNWLHWVKQRPGQGLEWIGYINPSNGATNYNERFKSKASLTVDKSSTTAYMQLSSLTSEDSAVYYCARSGGWLLPYYAMDYWGHGTSVTVSS
# VL: EIVLIQSPALMAASPGEKVTITCSVSSSISSSNLHWYQQQSGTSPKPWILATSNLASGVPVRFSGSGSGTSYSLTISSMEAEDAATYYCQQWSSYPFTFGTGTKLEIK
# B9: V0007 (antibody, V domains shown)
# VH: EVQLVESGGDLVKPGGSLKLSCAASGFTFSSYGLSWVRQTPDKRLEWVATISSGGDYTYYPDSVKGRFTISRDNAKNILYLHMSSLKSEDTAMYYCAREDGYYVGTMDYWGQGTSVTVSS
# VL: DIQMTQSPSSLSASLGERVSLTCRASQDIGSSLNWLQQEPDGTFKRLIYATSSLDSGVPKRFSGSRSGSDYSLTISSLESEDFVDYYCLQYDSLPLTFGAGTKLELK
# B10: V1003 (antibody, V domains shown)
# VH: EVKLVESGGGLVKPGGSLKLSCAASGFTFSSYAMSWVRQIPEKRLEWVAAINSNGGSTYYPDTVKDRFTISRDNAKNTLYLQMSSLRSEDTALYYCVRQGWDAWFAYWGQGTLVAVSA
# VL: DIKMTQSPSSMYASLGERVTITCKASQDINSYLSWFQQKPGKSPKTLIYRANRLVDGVPSRFSGSGSGQDYSLTISSLEYEDMGIYYCLQYDEFPLTFGAGTKLELK
# B11: V1001 (antibody, V domains shown)
# VH: EVQLVESGGGLVKPGGSLKLSCAASGFTFSSYAMSWVRQTPEKRLEWVAAINSNGGRTYYPDTVKDRFTISRDNAKNTLYLQMSSLRSEDTALYYCARQGHSNYYEAWFAYWGQGTLVTVSA
# VL: B10 VL with V19L, T20S, S34N, Y80D, K107R
# B12: V1004 (antibody, V domains shown)
# VH: B10 VH with K3Q, I40T, T58I, S84I, V97A, W101G, D102S, A103S, A106V, A115T
# VL: B10 VL with T5I, S77R, M83V, I85L, L89Q
# B13: V0025 (antibody, V domains shown)
# VH: QVQLQQPGTELVKPGASVKLSCKASGFTFTRFWMHWVKQRPGQGLEWIGNINPNNGETNYNEKFKIKAALTVDKSSTTAYMQLSSLTSEDSAVYSCARGTGTGAMDYWGQGTSVTVSS
# VL: DVVMTQTPLSLPVSLGDQASISCRSSQSLVHSTGNTYLYWYLQKPGQSPKLLIYRVSTRFSGVPDRFSGSGSGTDFTLKINRVEAEDLGVYFCFQGTHVPRTFGGGTKLEIK
# B14: V0008 (antibody, V domains shown)
# VH: QVQLKESGPGLVAPSQSLSITCTVSGFSLTTYAISWVRQPPGKGLEWLGVIWTGGGTDFNSALKSRLSISKDNSKSQVFLKMISLQTNDTARYYCARKGGSYYSTTYVGLYAMDYWGQGTSVTVSS
# VL: DIQMTQTTSSLSASLGDRVTISCRASQDISNYLNWYQQKPAGTVKLLIYYTSRLHSGVPSRFSGSGSGTDYSLTISNLEQEDVATYFCQQGNTLPWTFGGGSKLEIK
# B15: V1005 (antibody, V domains shown)
# VH: QVTLKESGPGKLQPSQTLSLTCSFSGFSLSTSGMGVSWIRQPSGKGLEWLAHIYWDDDKRYNPSLKSRLTISKDTSRNQVFLKITSVDTADTATYYCARGWLRRKDYSAMDYWGQGTSVTVSS
# VL: NIVMTQSPKSMSMSVGERVTLSCKASEHVGPYVSWYQHKAEQSPKLLIYGASNRYTGVPDRFTGSGSATDFTLIISSVQAEDLADYHCGQTYSYPLTFGAGTKLELK
# B16: V0001 (antibody, V domains shown)
# VH: EVQLVESGGGLVQPKGSLKLSCAASGFTFNTYAMYWVRQAPGKGLEWVARIRSKSSNYATYYADSVKDRFTISRDDSQSKLYLQMNNLKTEDTAMYYCVREGLWYYFDYWGQGTTLTVSS
# VL: DIQMTQITSSLSASLGDRVTISCRASQDISNYLNWYQQKPDGTVKLLIYSTSRLHSGVPSRFSGSGSGTDYSLTISNLEPEDIATYYCQQYSKLLPTFGSGTKLEIK
# B17: V0036 (antibody, V domains shown)
# VH: QVTLKESGPGILQPSQTLNLTCSFSGFSLSTSGMGVSWIRQPSGKGLEWLAHIYWDDDKRYNPSLKSRLTISKDTSRNQVFLKITSVDTADTATYYCVRRSRRGNYDYWGQGTTLTVSS
# VL: not shown
# B18: V2001 (antibody, V domains shown)
# VH: DVQLVESGGGLVQPGGSRKLSCAASGFIFSSFGMHWVRQAPEKGLEWVAYISSGSATIYYADTVKGRFTISRDNPKNTLFLQMTSLRSEDTAMYYCARKRGSGNYVSAMDFWGQGTSVTVSS
# VL: DVLMTQTPLSLPVSLGDQASISCRSGQSIVHSNGNTYLEWYLQKPGQSPKLLIYKVSNRFSGVPDRFSGSGSGTDFTLKISRVEAEDLGVYYCFQGSHVPWTFGGGTKLEIK
# B19: V0047 (antibody, V domains shown)
# VH: EVQLVESGGGLVKPGGSLKLSCAASGFTFSDYGMHWVRQAPEKGLEWVAYISSGSRTIYYADTVKGRFTISRDNAKNTLFLQMTSLRSEDTAMYYCARSPYAMDYWGQGTSVTVSS
# VL: B18 VL with L3V, G26S, I29L, E39H, Y92F, F94S, G96S, S97T
# B20: V00011 (antibody, V domains shown)
# VH: EVQLVESGGGLVKPGGSLKLSCAASGFTFSDYGMYWVRQAPEKGLEWVAYISSGSTTIYYADTVKGRFTISRDNAKNTLFLQMTSLRSEDTAMYYCAGHWYFDVWGTGTTVTVSS
# VL: B18 VL with L9V, G26S, Y37H, G96D
# B21: V00010 (antibody, V domains shown)
# VH: QIQLVQSGPELKKPGETVKISCKASGYSFTTYGMSWVKQAPGKGLKWMGWINTYSGVPTYADDFKERFAFSLETSASTAYLQINNLKNEDTSTYFCARRGGLYDGYYGYWGQGTTLTVSS
# VL: DIVMSQSPSSLAVSAGEKVTMSCKSSQSLLSSRTRKNYLAWYQQKPGQSPKLLIYWASTRESGVPDRFTGSGSGTDFTLTITTVQAEDLAVYYCKQSYNLWTFGGGTKLEIK
# Molecular target: iPHF (Homo sapiens (Human), UniProt P10636-8)
# Assay: Octet, antibody on biosensor tips
# Experimental: Anti-human tau antibodies were assessed for affinity for iPHF by Octet (ForteBio, Menlo Park, CA) analysis. Recombinant mouse IgG antibodies were prepared with clone-specific variable domain pairs selected from those presented in Table 3 and mouse IgG1 constant domains. Candidate antibodies were immobilized on biosensor tips (ForteBio) in kinetic buffer (ForteBio). Biosensor tips were then washed before introduction of a solution of iPHF in kinetic buffer for analysis of association and dissociation with candidate antibodies. Affinity measurements (K_D) were obtained using Data Analysis HT version 11.1 and corrected for background and high-frequency noise.
row,Kd [nM],Binder
1,1.3,B1

# Molecular target: enriched paired helical filament tau protein (ePHF) (human, phosphorylated residues of pathological tau, sites not stated)
# Assay: direct ELISA
# Experimental: Variable domain nucleic acid sequences from antibodies obtained from immunizations described above were used to prepare recombinant mouse IgG antibodies. These candidate antibodies were analyzed for binding to ePHF and specificity for ePHF over wild type tau by direct ELISA.
# For direct ePHF and wildtype tau ELISA, plates were first coated with ePHF or wild type tau. Antigen solutions were prepared in PBS and 50 μL were pipetted into each well. Plates were covered and incubated for one hour at 37° C. or overnight at 4° C. Plates were then washed and blocked by addition of 150 μl of blocking buffer to each well and incubated one hour at room temperature. Plates were then washed before addition of serially diluted candidate antibody samples prepared in blocking buffer. Detection of candidate antibody binding was carried out by washing plates and adding a solution of enzyme-labeled secondary antibody in blocking buffer to each well. Secondary antibody binding was detected by addition of substrate and spectrophotometric analysis of resulting reaction product.
row,EC50 [nM],Binder
1,0.581,B2
2,0.209,B3
3,0.618,B4
4,0.869,B5
5,0.861,B6
6,0.053,B7
7,2.83,B8
8,0.74,B9
9,0.234,B10
10,0.401,B11
11,0.069,B12
12,0.098,B13
13,1.54,B14
14,0.48,B15
15,0.126,B16
16,6.43,B17
17,0.237,B18
18,0.118,B19
19,0.171,B20
20,0.134,B21

# — patent US12709641B2, “Tau binding compounds” (VOYAGER THERAPEUTICS, INC., dated 2026)
